Experimental findings from patent US20140271607A1 are described below.

In series [1] the target is FX (blood coagulation factor X). The experiment in a line: cell-based or functional assay.
Series [2] has as its target rsTF (recombinant soluble tissue factor) (UniProt P13726). The experiment in a line: cell-based or functional assay.
Series [3] addresses FX (blood coagulation factor X).
The target of series [4] is T1, rsTF (recombinant soluble tissue factor), P13726.
T1 chain: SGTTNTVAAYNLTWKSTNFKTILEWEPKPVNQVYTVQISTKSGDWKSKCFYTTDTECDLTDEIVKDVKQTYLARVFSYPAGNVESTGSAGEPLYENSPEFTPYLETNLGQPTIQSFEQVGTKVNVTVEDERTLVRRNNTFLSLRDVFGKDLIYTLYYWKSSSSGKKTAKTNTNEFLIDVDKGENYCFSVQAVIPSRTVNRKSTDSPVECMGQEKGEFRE

“FacVII-ATKAVC-40 kDa PEG conjugate (C-terminal PEGylated) (from UniProt P08709 1-466) (enzyme)” gave an EC50 (ng/mL), chromogenic assay (COASET) in series [1] of 6.06 ng/mL.
With “FacVII-ATKAVC (FacVII derivative with SOD1 residues 1-6, ATKAVC, at the C-terminus) (from UniProt P08709 1-466) (enzyme)”, in series [1], the EC50 (ng/mL), chromogenic assay (COASET) is 1.75 ng/mL; the EC50 (ng/mL), chromogenic assay (COASET), Run 1 amounted to 1.36 ng/mL; the EC50 (ng/mL), chromogenic assay (COASET), Run 2 was found to be 1.16 ng/mL.

B1: FacVIIa-ATKAVC-PEG-Fc complex (protein, part only; not given: Fc region and PEG linker, not shown: a dimerising Fc or GST)
chain: MVSQALRLLCLLLGLQGCLAAVFVTQEEAHGVLHRRRRANAFLEELRPGSLERECKEEQCSFEEAREIFKDAERTKLFWISYSDGDQCASSPCQNGGSCKDQLQSYICFCLPAFEGRNCETHKDDQLICVNENGGCEQYCSDHTGTKRSCRCHEGYSLLADGVSCTPTVEYPCGKIPILEKRNASKPQGRIVGGKVCPKGECPWQVLLLVNGAQLCGGTLINTIWVVSAAHCFDKIKNWRNLIAVLGEHDLSEHDGDEQSRRVAQVIIPSTYVPGTTNHDIALLRLHQPVVLTDHVVPLCLPERTFSERTLAFVRFSLVSGWGQLLDRGATALELMVLNVPRLMTQDCLQQSRKVGDSPNITEYMFCAGYSDGSKDSCKGDSGGPHATHYRGTWYLTGIVSWGQGCATVGHFGVYTRVSQYIEWLQKLMRSEPRPGVLLRAPFPATKAVC
modifications: C-terminal cysteine linked to the maleimide end of 10 kDa PEG
On to B1, for which, in series [2], the Potency (IU/mL), clotting assay (StaclotVIIa-rTF) was 1990 IU/mL; the Residual activity, % (compared to FacVIIa-ATKAVC), clotting assay (StaclotVIIa-rTF) is 44.7%; the Specific activity (IU/mg as FacVIIa), clotting assay (StaclotVIIa-rTF) was 20600 IU/mg.

B2: blood coagulation factor VII (Factor VII, FacVII), native (protein)
chain: AVFVTQEEAHGVLHRRRRANAFLEELRPGSLERECKEEQCSFEEAREIFKDAERTKLFWISYSDGDQCASSPCQNGGSCKDQLQSYICFCLPAFEGRNCETHKDDQLICVNENGGCEQYCSDHTGTKRSCRCHEGYSLLADGVSCTPTVEYPCGKIPILEKRNASKPQGRIVGGKVCPKGECPWQVLLLVNGAQLCGGTLINTIWVVSAAHCFDKIKNWRNLIAVLGEHDLSEHDGDEQSRRVAQVIIPSTYVPGTTNHDIALLRLHQPVVLTDHVVPLCLPERTFSERTLAFVRFSLVSGWGQLLDRGATALELMVLNVPRLMTQDCLQQSRKVGDSPNITEYMFCAGYSDGSKDSCKGDSGGPHATHYRGTWYLTGIVSWGQGCATVGHFGVYTRVSQYIEWLQKLMRSEPRPGVLLRAPFP
In series [3], B2 gave a Relative activity, %, chromogenic assay (COASET) of 100%; a Relative activity, %, chromogenic assay (COASET), Run 1 of 100%; a Relative activity, %, chromogenic assay (COASET), Run 2 of 100%. In addition, in series [1], the EC50 (ng/mL), chromogenic assay (COASET) came out at 1.38 ng/mL; the EC50 (ng/mL), chromogenic assay (COASET), Run 1 stood at 1.62 ng/mL; the EC50 (ng/mL), chromogenic assay (COASET), Run 2 was 1.67 ng/mL.

B3: FacVII-40 kDa PEG (N-terminal PEGylated FacVII) (protein)
chain: AVFVTQEEAHGVLHRRRRANAFLEELRPGSLERECKEEQCSFEEAREIFKDAERTKLFWISYSDGDQCASSPCQNGGSCKDQLQSYICFCLPAFEGRNCETHKDDQLICVNENGGCEQYCSDHTGTKRSCRCHEGYSLLADGVSCTPTVEYPCGKIPILEKRNASKPQGRIVGGKVCPKGECPWQVLLLVNGAQLCGGTLINTIWVVSAAHCFDKIKNWRNLIAVLGEHDLSEHDGDEQSRRVAQVIIPSTYVPGTTNHDIALLRLHQPVVLTDHVVPLCLPERTFSERTLAFVRFSLVSGWGQLLDRGATALELMVLNVPRLMTQDCLQQSRKVGDSPNITEYMFCAGYSDGSKDSCKGDSGGPHATHYRGTWYLTGIVSWGQGCATVGHFGVYTRVSQYIEWLQKLMRSEPRPGVLLRAPFP
In series [3], B3 yielded a Relative activity, % (compared to FacVII), chromogenic assay (COASET) of 11.3%. Further, the EC50 (ng/mL), chromogenic assay (COASET) in series [1] stood at 12.2 ng/mL.

B4: FacVIIa-ATKAVC (activated FacVII-ATKAVC derivative) (protein)
chain: AVFVTQEEAHGVLHRRRRANAFLEELRPGSLERECKEEQCSFEEAREIFKDAERTKLFWISYSDGDQCASSPCQNGGSCKDQLQSYICFCLPAFEGRNCETHKDDQLICVNENGGCEQYCSDHTGTKRSCRCHEGYSLLADGVSCTPTVEYPCGKIPILEKRNASKPQGRIVGGKVCPKGECPWQVLLLVNGAQLCGGTLINTIWVVSAAHCFDKIKNWRNLIAVLGEHDLSEHDGDEQSRRVAQVIIPSTYVPGTTNHDIALLRLHQPVVLTDHVVPLCLPERTFSERTLAFVRFSLVSGWGQLLDRGATALELMVLNVPRLMTQDCLQQSRKVGDSPNITEYMFCAGYSDGSKDSCKGDSGGPHATHYRGTWYLTGIVSWGQGCATVGHFGVYTRVSQYIEWLQKLMRSEPRPGVLLRAPFPATKAVC
For the molecule B4, in series [4], the Potency (IU/mL), clotting assay (StaclotVIIa-rTF) was 16700 IU/mL and the Specific activity (IU/mg as FacVIIa), clotting assay (StaclotVIIa-rTF) was 46100 IU/mg.
